In general, Kd refers to a measure of binding affinity in units of concentration. A higher Kd goes with weaker binding. Usually koff stands for the first-order rate constant of dissociation. A high value points to a short-lived complex. The term kon denotes the rate constant with which the complex forms. A low value points to slower complex formation. A word on the IC50: it is the concentration needed to halve the response being measured.

Where a chain is given by its changes, count along the chain named.

These results are taken from patent publication US20220204603A1 (PHARMABCINE, published 2022).

Assay [1] concerns the target T1, mouse Ang2 (construct not stated) (mouse, UniProt O35608 19-496, limits assumed).
T1 construct: also called mAng2
T1 sequence (looked up): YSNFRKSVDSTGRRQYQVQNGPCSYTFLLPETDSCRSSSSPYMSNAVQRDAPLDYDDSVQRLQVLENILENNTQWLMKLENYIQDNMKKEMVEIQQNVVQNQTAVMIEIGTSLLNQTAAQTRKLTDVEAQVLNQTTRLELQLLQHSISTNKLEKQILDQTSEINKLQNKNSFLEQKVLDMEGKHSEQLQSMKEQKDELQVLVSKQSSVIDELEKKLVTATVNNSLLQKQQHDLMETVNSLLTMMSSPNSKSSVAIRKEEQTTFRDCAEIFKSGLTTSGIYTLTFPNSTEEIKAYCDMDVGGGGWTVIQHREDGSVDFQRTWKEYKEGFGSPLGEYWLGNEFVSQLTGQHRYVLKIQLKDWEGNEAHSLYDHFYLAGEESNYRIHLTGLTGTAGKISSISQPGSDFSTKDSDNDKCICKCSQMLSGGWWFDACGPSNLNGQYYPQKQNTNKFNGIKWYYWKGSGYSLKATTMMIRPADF
The assay can be described thus: SPR Biacore T200, antibody captured on protein A chip, Ang2 as analyte, 1:1 model. How it is done: To analyze the binding affinity of the selected anti-Ang2 antibodies, affinity analysis for human Ang2 and mouse Ang2 was performed using BIACORE® T200 (GE Healthcare). A protein A sensor chip was used, and an experiment was conducted in accordance with the manufacturer's manual. Detailed analysis conditions are as follows. 2000 response units (RU) of protein A were immobilized, 25 RU of anti-Ang2 antibody candidates were used for binding, and various concentrations of human Ang2 and mouse Ang2 were allowed to bind. The starting concentrations for analysis are 100 nM and 150 nM, respectively. The analysis proceeded at a flow rate of 30 μl/min, the binding and dissociation time of human Ang2 was measured as 300 seconds and 2000 seconds, respectively, and the binding and dissociation time of mouse Ang2 was analyzed as 300 seconds and 1000 seconds, respectively. Analysis was performed using a 1:1 binding model as an analytical model.
In general terms: In SPR one partner is held on a chip, and binding of the other changes the refractive index at the surface.

The target in assay [2] is T1, mouse Ang2 (construct not stated). The assay can be described thus: competition ELISA: antibody preincubated with mAng2, binding to coated mouse Tie2-Fc. (ELISA stands for enzyme-linked immunosorbent assay.)
The target in assay [3] is hAng2-Fc (PharmAbcine) (human) (UniProt O15123). The assay is described as follows: phage ELISA, antigen coated at 1 µg/ml, anti-M13-HRP.
Assay [4] has as its target T2, Ang2 immobilized on a biosensor (Octet off-rate screening) (Homo sapiens (Human), UniProt O15123 19-496).
T2 construct: also called Ang2 antigen; not shown: It is a His tag if hAng2-his (R&D 623-AN/CF) was used, or an Fc if hAng2-Fc (PharmAbcine) was used
T2 sequence: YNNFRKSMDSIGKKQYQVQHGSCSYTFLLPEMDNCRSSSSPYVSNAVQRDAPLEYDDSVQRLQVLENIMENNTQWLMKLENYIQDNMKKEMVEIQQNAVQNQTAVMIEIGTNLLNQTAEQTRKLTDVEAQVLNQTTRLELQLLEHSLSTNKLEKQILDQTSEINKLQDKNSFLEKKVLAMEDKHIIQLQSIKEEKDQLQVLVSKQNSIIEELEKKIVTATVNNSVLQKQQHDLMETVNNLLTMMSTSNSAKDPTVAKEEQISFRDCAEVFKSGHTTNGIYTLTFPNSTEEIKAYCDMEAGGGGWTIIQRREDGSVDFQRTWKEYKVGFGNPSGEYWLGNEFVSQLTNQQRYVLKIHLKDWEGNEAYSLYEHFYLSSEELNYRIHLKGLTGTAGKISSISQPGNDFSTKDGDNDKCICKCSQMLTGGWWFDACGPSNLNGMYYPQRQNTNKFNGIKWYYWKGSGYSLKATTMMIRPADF
The assay can be described thus: Octet (BLI), Ang2 immobilized on biosensor, scFv in solution. For orientation: Biolayer interferometry detects binding as a change in optical thickness at a sensor tip.

In the next assay the target is T3, mAng1-Fc (PharmAbcine) (mouse, UniProt O08538 20-498, limits assumed).
T3 construct: In-house (PharmAbcine) Fc fusion; not shown: Fc part
T3 sequence (looked up): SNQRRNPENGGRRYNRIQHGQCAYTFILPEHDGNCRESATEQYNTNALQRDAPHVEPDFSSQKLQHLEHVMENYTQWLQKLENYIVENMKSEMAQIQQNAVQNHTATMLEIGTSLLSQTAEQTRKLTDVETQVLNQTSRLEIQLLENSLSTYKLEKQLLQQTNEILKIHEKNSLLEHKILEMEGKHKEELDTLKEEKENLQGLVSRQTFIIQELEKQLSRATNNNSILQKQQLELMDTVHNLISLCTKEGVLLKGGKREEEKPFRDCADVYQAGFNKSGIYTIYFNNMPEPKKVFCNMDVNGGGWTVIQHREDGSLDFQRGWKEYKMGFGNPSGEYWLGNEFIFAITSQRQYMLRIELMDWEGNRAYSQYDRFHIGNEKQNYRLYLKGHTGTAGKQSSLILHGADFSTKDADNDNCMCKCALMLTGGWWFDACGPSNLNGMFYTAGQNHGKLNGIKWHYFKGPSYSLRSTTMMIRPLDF
The assay can be described thus: phage ELISA, antigen coated at 1 µg/ml, anti-M13-HRP.

The target of assay [5] is human Ang2 (construct not stated) (human) (UniProt O15123). The assay is described as follows: Octet (BLI), scFv immobilized on biosensor, human Ang2 in solution.

Take nesvacumab (antibody): in assay [1], the Kd stood at 0.262 nM, the koff turned out to be 5.51e-05 s⁻¹ and the kon amounted to 210000 M⁻¹ s⁻¹. Moreover, the IC50 in assay [2] worked out at 10.4 nM.

B1: No. 41 monoclonal scFv phage (scFv, V domains shown, not shown: large carriers)
VH: QVQLVESGGGLVQPGGSLRLSCEASGFAFGRYEMNWVRQAPGKGLEWIAYIDTGGGAKVYADSVKGRFTISRDDSKNSLYLQMNSLRAEDTAVYYCTTEGLMNGLHFDMWGQGTMITVSS
VL: DIQMTQSPSTLSASVGDRVAITCRASQAISTWLAWYQQKPGKAPKLLIYTASTLESGVPSRFSGSGSGTDFTLTINSLQPDDFATYYCQQLNSYPYTFGGGTKVEIKR
modifications: scFv linker; phage coat protein fusion
B1: the OD in assay [3] came to 0.825 OD.

B2: No. 41 candidate antibody expressed in the form of scFv (scFv, V domains shown)
VH: B1 VH
VL: B1 VL
The molecule B2 had a koff in assay [4] of 1.08e-05 s⁻¹.

B3: No. 46 monoclonal scFv phage (scFv)
chain: QVQLVESGGGLVQPGRSLRLSCAASGFTFDDCAMHWVRQAPGKGLEWVSGISGNSKNVAYADSVKGRFSISRDDAKNSLYLQMNSLRAEDTAVYYCARDPAYSQFDYWGQGTLITVSSQSALTQPPSLSATPGQRVTISCSGSSSNVGGYPVNWYQQVPGAAPKLLMYTDYKRPSGVPDRFFGSKSGTSASLAISGLQSEDEADYYCATWDDNLNGYVFGTGTKVTVLG
Regarding B3, the OD with mAng1-Fc (PharmAbcine) amounted to 0.061 OD.

B4: No. 4 monoclonal scFv phage (scFv)
chain: QVQLVESGAEVKRPGESLRISCKTSGYSFTSYWIHWVRQMPGKELEWMGSIYPGNSDTRYSPSFQGHVTISADSSSSTAYLQWSSLKASDTAMYYCTTEGLMNGLHFDMWGQGTMVTVSSDIVMTQTPLSLPVTPGEPASISCRSSQSLLHSLGDNYLDWYLQKPGQSPQLLIYLGSKRAAGVPDRFSGSGSGTDFTLKISRVEAEDVGVYYCMQSLQTPPYTFGQGTKLEIKR
As to B4, the OD in assay [3] was 0.835 OD; with mAng1-Fc (PharmAbcine), 0.093 OD.

B5: No. 46 monoclonal scFv phage (scFv, V domains shown, not shown: large carriers)
VH: QVQLVESGGGLVQPGRSLRLSCAASGFTFDDCAMHWVRQAPGKGLEWVSGISGNSKNVAYADSVKGRFSISRDDAKNSLYLQMNSLRAEDTAVYYCARDPAYSQFDYWGQGTLITVSS
VL: QSALTQPPSLSATPGQRVTISCSGSSSNVGGYPVNWYQQVPGAAPKLLMYTDYKRPSGVPDRFFGSKSGTSASLAISGLQSEDEADYYCATWDDNLNGYVFGTGTKVTVLG
modifications: scFv linker; phage coat protein fusion
In assay [3], B5 displayed an OD of 1.19 OD.

B6: No. 46 candidate antibody expressed in the form of scFv (scFv, V domains shown)
VH: B5 VH
VL: B5 VL
With B6, the koff in assay [4] was found to be 6.14e-05 s⁻¹.

B7: No. 8 monoclonal scFv phage (scFv)
chain: QVQLVESGGGLVKPGGSLRLSCAASGFTFSSYSMNWVRQAPGKGLEWVSSISASDGATYYADSVRGRFTISRDNSRSTLYLQMNSLRAEDTAVYYCAKILAGYSGPMGGMDVWGQGTTVTVSSDIQMTQSPSSLSASVGDRVTITCRASRDISNYLAWYQQKPGKAPKSLIYGASNLQSGVSSQFSGSGSGTDFTLTINSLQPEDSATYYCQQYYSYPLTFGGGTKVDIKR
For the molecule B7, the OD in assay [3] worked out at 1.36 OD; with mAng1-Fc (PharmAbcine), 0.199 OD.

B8: No. O4 scFv, optimized anti-Ang2 scFv antibody expressed in E. coli (pET-22b), refolded and purified (scFv, part only; not given: scFv linker and His tag, not shown: small tags and cut ends)
scFv, part: B7 chain with I99T
With B8, in assay [5], the Kd was 0.28 nM, the koff was found to be 2.54e-05 s⁻¹ and the kon amounted to 94000 M⁻¹ s⁻¹.

B9: No. 8 candidate antibody expressed in the form of scFv (scFv)
chain: B7 chain
Consider B9, for which the koff in assay [4] was less than 1e-07 s⁻¹.

B10: No. 4 candidate antibody expressed in the form of scFv (scFv, V domains shown)
VH: QVQLVESGAEVKRPGESLRISCKTSGYSFTSYWIHWVRQMPGKELEWMGSIYPGNSDTRYSPSFQGHVTISADSSSSTAYLQWSSLKASDTAMYYCTTEGLMNGLHFDMWGQGTMVTVSS
VL: DIVMTQTPLSLPVTPGEPASISCRSSQSLLHSLGDNYLDWYLQKPGQSPQLLIYLGSKRAAGVPDRFSGSGSGTDFTLKISRVEAEDVGVYYCMQSLQTPPYTFGQGTKLEIKR
On to B10, for which the koff in assay [4] stood at 0.000212 s⁻¹.

B11: No. 41 monoclonal scFv phage (scFv)
chain: QVQLVESGGGLVQPGGSLRLSCEASGFAFGRYEMNWVRQAPGKGLEWIAYIDTGGGAKVYADSVKGRFTISRDDSKNSLYLQMNSLRAEDTAVYYCTTEGLMNGLHFDMWGQGTMITVSSDIQMTQSPSTLSASVGDRVAITCRASQAISTWLAWYQQKPGKAPKLLIYTASTLESGVPSRFSGSGSGTDFTLTINSLQPDDFATYYCQQLNSYPYTFGGGTKVEIKR
In the assay with mAng1-Fc (PharmAbcine), B11 gave an OD of 0.111 OD.

B12: No. 3 monoclonal scFv phage (scFv, V domains shown, not shown: large carriers)
VH: QMQLVQSGGGLVQPGRSLKLSCAASGFSFDDYAMHWVRQAPGKGLEWVATIKDDGSQTYYVDSVKGRFTISRDNAKSSLFLQMNSLRAEDTAVYYCTTEGLMNGLHFDMWGQGTMVTVSS
VL: LVLTQPPSVSGAPGQGVTISCTGSSSNIGAGYDVHWYQQFPGTAPKLLISGNNNRPSGLPDRFSGSKSGTSASLAITGLQAEDEADYYCQSYDSRLGVVFGGGTKLTVLG
modifications: scFv linker; phage coat protein fusion
In assay [3], B12 gave an OD of 1.9 OD.

B13: No. 3 candidate antibody expressed in the form of scFv (scFv, V domains shown)
VH: B12 VH
VL: B12 VL
On to B13, for which the koff in assay [4] turned out to be 0.000642 s⁻¹.
